The values that follow are results of earlier work, collected in paper PMC6003685.

pKd: −log10 of the molar value.

As usually defined, the pKd is the negative decadic logarithm of the Kd, by convention in mol/L.

This series deals with PspF 1-265 (Escherichia coli) (UniProt P37344).

PspA 1-144 (from UniProt P0AFM6): the pKd was 6.00.
